Results: the nanobody polyreactivity screen of Harvey et al. (2022)

Test: yeast display, Sf9 membrane polyspecificity reagent, FACS + sequencing; frameworks hold sequencing errors
Method in brief: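 Sorting gates, low and high (top ~1%), were placed on anti-HA fluorescence to track expression and on streptavidin fluorescence to track reagent binding. A clone's polyreactivity label is taken from the gate it came out of. The reagent was 10% biotinylated, detergent-solubilized Sf9 membrane, applied for 1 hour at 4 °C to galactose-induced yeast display cells.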

Row | Sequence | polyreactivity (PSR sort gate)
1 | QVQLVESGGGLVQAGGSLRLSCAASGIIFAFSAMGWYRQAPGKERELVAGITSGGDTYYADSVKGRFTISRDNAKNTVYLQMNSLKPEDTAVYYCAADVQYPNRAGWLYWYATNFDYWGQGTQVTVSS | high polyreactivity
2 | QVQLVESGGGLVQAGGSLRLSCAASGIIFAGNAMGWYRQEPGKERELVAAISSGTTTNYADSVKGRFTISRDNAKNTVYLQMNSLKPEDTAVYYCAADDFPYKSDYWGQGTQVTVSS | low polyreactivity
3 | QVQLVESGGGLVQAGGSLRLSCAASGIIFASNAMGWYRQAPGKERELVAAINRSGGSTYYADSVKGRFTISRDNAKNTVYLQMNSMKPEDTAVYYCAADYRFYSPTKYSYDYWGQGTLVTVSS | high polyreactivity
4 | QVQLVESGGGLVQAGGSLRLSCAASGIIFATYAMGWYRQAPGKERELVAAISSGGRTYYADSVKGRFTISRDNAKNTVYFQMNSLKPEDTAVYYCAAKSGGRSSLYNYWGQGTQVTVSS | high polyreactivity
5 | QVQLVESGGGLVQAGGSLRLSCAASGIIFAVYAMGWYRQAPGKERELVAAISTSGGRTYYADSVKGRFTISRDNAKNTVYLQMNSLKPEDTAVYYCAAEYVGKGTPDDYDYWGQGTQVTVSS | high polyreactivity
6 | QVQLVESGGGLVQAGGSLRLSCAASGIIFAYYARRWYRHAPGKERELVAAISWSGTSTYYADSVKGRFTISRDNAKNTVYLQMNSLKPEDTAVYYCNAYGLYSDMDYWGQGTQVTVSS | high polyreactivity
7 | QVQLVESGGGLVQAGGSLRLSCAASGIIFAYYDMGLYRKAPGKERELVAAISSTGSNTYYADSVKGRFTISRDNAKNTVYLQMNSLKPEDTAVYYCAAGYAYYIGHGDYWGQGTQVTVSS | high polyreactivity
8 | QVQLVESGGGLVQAGGSLRLSCAASGIIFDDNAMGGYRQAPGKERELVAAITYSGGSTYYADSVKGRFTISRDKAKNTVYLQMNSLKPEDTAVYYCAADNRPIVGSYYYWGQGTQVTVSS | low polyreactivity
9 | QVQLVESGGGLVQAGGSLRLSCAASGIIFDDNAMGWYRQAPGKERELVAAINRDGSTYYADSVKGRFTISRDNAKNTVYLQLNSLKPEDTAVYYWAADFYGPRSAVYFLRYSTRYYWGQGTQVTVSS | low polyreactivity
10 | QVQLVESGGGLVQAGGSLRLSCAASGIIFDDYAMGWYRQATGKERELVAVISSSGGNTYYADSVKVRFTISRDNAKNSVYLQMNSLKPEDTAVYYCAATYYYKSIYWFEYWGQGTQVTVSS | low polyreactivity
11 | QVQLVESGGGLVQAGGSLRLSCAASGIIFDEYAMGWYRQAPGKEREMVAAITSGGSTYYADSVKGRFTISRDNAKNTVYLQMNSLKPEDTAVYYCNAYSSYGTFFYWAWPYYYWGQGTQVTVSS | high polyreactivity
12 | QVQLVESGGGLVQAGGSLRLSCAASGIIFDGNAMGGYRQAAGKERELVAAHTSSTDSTYYADSVKGRFTISRDNAKNTVYLQMNSLKPEDTAVYYCAADYPSKTFDYWGQGTQVTVSS | low polyreactivity
13 | QVQLVESGGGLVQAGGSLRLSCAASGIIFDGYAMGWYRQAPGKERELVAAISGHGGSTYYADSVKGRFTISRDNAKNTVYLQMNSLKPEDTAVYYCAAEYVYWRIGQYDYWGQGTQVTVSS | high polyreactivity
14 | QVQLVESGGGLVQAGGSLRLSCAASGIIFDHYAMGWYRQAPGKERELVAAISTGGGNTYYADSVKGRFTISRDNAKNTVYLQMNSLKPEDTAVYYCAARRGTGSYSYRYPYGYDYWGQGTQVTVSS | low polyreactivity
15 | QVQLVESGGGLVQAGGSLRLSCAASGIIFDRYAMGWYRQAPGKERELVAAITYGGGSTYYADSVKGRFTISRDNAKNTVYLQMNSLKTEDTAVYYCAAVPRSGMYYWGQGTQVTVSS | high polyreactivity
16 | QVQLVESGGGLVQAGGSLRLSCAASGIIFDTYAMGWYIQAPGKERELVAAISRSGDTTYYADSVKGRFTISRDNAKNTVYLQMNSLKPEDTAVYYCNARQSRWDKYDYWGQGTQVTVSS | high polyreactivity
17 | QVQLVESGGGLVQAGGSLRLSCAASGIIFDTYAMGWYRQAPGKERELVAAISRSGDTTYYADSVKGRFTISRDNAKNTVFLQMNSLKPEDTAVYYCNARQSRWDKYDYWGQGTQVTVSS | high polyreactivity
18 | QVQLVESGGGLVQAGGSLRLSCAASGIIFDTYAMGWYRQAPGKERELVAAISRSGDTTYYADSVKGRFTISRDNAKNTVYLQMNSLKPEDTAVYYCYARQSRWDKYDYWGQGTQVTVSS | high polyreactivity
19 | QVQLVESGGGLVQAGGSLRLSCAASGIIFDYNAMGWYRQAPGKERELVAAISGRSGRTYYADSVKGRFTISRDNAMNTVYLQMNSLKPEDTAVYYCAARWYAGGNYWGQGTQVTVSS | high polyreactivity
20 | QVQLVESGGGLVQAGGSLRLSCAASGIIFDYYAMGWYRPAPGKERELVAAINWNGGTPYYADSVKGRFTISRDYAKKTVFLQMNSLKPEDSAVYYCNTRGRYLMVDWGHGTQVTVSS | high polyreactivity
21 | QVQLVESGGGLVQAGGSLRLSCAASGIIFDYYAMGWYRQAPGKERELVAAITTSGGRTYYADSVKGRFTISRDNAKNTVNFQMNSLKPEDTAVYYCAASRPSPRPRYGYWGQGTQVTVSS | high polyreactivity
22 | QVQLVESGGGLVQAGGSLRLSCAASGIIFEYYAMGWSRPAPGKERQLVAAISSSGGSTYYADSVKVRFTISRDNAKNTVYLQMNSLKPEDTAVYYCATRYAASTSRWQYYYWGQGTQVTVSS | high polyreactivity

Row | Sequence | polyreactivity (PSR sort gate)
23 | QVQLVESGGGLVQAGGSLRLSCAASGIIFFFYDMGWYRQSPGKERELVAAISDDGVSTDYADSVKGRFTISRDNAKNTVYLQMNSLKPEDTAVYYCAAKTERVYPWFSFGYWVQGTQVTVSS | low polyreactivity
24 | QVQLVESGGGLVQAGGSLRLSCAASGIIFFLYAMGWYRPAPGKERELVAAISSGGSTYYADSVKGRFTISRDNAKNTVYLQMNSLKPEDTAVYYCNARYWPFRYYYWGQGTQVTVSS | high polyreactivity
25 | QVQLVESGGGLVQAGGSLRLSCAASGIIFFRNAMGWYRQAPGNERELVATITSGVSTNYADSVKGRFTISRDNAKNTVYLQKNSLKPEDTAVYYCATEGFPFYDFDYWGQGTQVTVSS | high polyreactivity
26 | QVQLVESGGGLVQAGGSLRLSCAASGIIFFTYAMGWYRQATGKERELVAAISSGGSTTYADSVKGRFTISRDNAKNTVYLQMNSLKPEDTAVYYCAAGTQAHDYVVRPIDMDYWGQGTQVTVSS | low polyreactivity
27 | QVQLVESGGGLVQAGGSLRLSCAASGIIFGEYAMGWYRQAPGKERELVAAISGSGSRTYYADSVKGRFTISRDNAKNTVYLQMNSLKPEDTAVYYCAVKGGGTRYGYWGQGTQVTVSS | high polyreactivity
28 | QVQLVESGGGLVQAGGSLRLSCAASGIIFGEYAMGWYRQAPGKERELVAAISQSGGTYYADSVKGRFTISRDNAKNTVYLQMNSLKPEDTAVYYCNADYWAYISRVRYDYWGQGTQVTVSS | low polyreactivity
29 | QVQLVESGGGLVQAGGSLRLSCAASGIIFGGYDMGWYRQAPGKERELVAAISWSGGSTYYADSVKGRFTISRDNAKNTVYLQMNSLKPEDTAVYYCAAAYYAPTRDYHYWGQGTQVTVSS | low polyreactivity
30 | QVQLVESGGGLVQAGGSLRLSCAASGIIFGGYTMGWYRQAPGKERELVAAISSTGASTYYADSVEGRFTISRDNAKNTVYLQMNSLKPEDTAVYYCNAKRAPWGTLYNYWGQGTQVTVSS | high polyreactivity
31 | QVQLVESGGGLVQAGGSLRLSCAASGIIFGHYAMGWYRQAPGKERELVAAIRSSGGTTYYADSVKGRFTISRDNAKNTVYLQMNSLKPEDTAVYYCAKRGVHLYHDYYWGQGTQVTVSS | low polyreactivity
32 | QVQLVESGGGLVQAGGSLRLSCAASGIIFGHYAMGWYRQAPGKERELVARITYSGTRTYYADSVKGRFTISRDNAKNTVYLQMNSLKPEDTAVYYCAAGYAYPRWVTAGNYWGQGTQVTVSS | high polyreactivity
33 | QVQLVESGGGLVQAGGSLRLSCAASGIIFGRYAMGWYRQAPGKEREFVAAITWRVGTTYYADSVKGRFTISRDNAKNTVYLQMNSLKPEDTAVYYCAARSRTGRYDYWGQGTQVTVSS | high polyreactivity
34 | QVQLVESGGGLVQAGGSLRLSCAASGIIFGRYAMGWYRQAPGKERELVAAINGSGGSTYYADSVKGRFTISRDNAKNTVYLQMNSLKPEDTAVYYCAVVYYGSIFVLEYDYWGQGTQVTVSS | high polyreactivity
35 | QVQLVESGGGLVQAGGSLRLSCAASGIIFGRYAMGWYRQAPGKERELVAAISGSGGITYYADSVKGRFTISRDNAKNTVYLQMNSLKPEDTAVYYCATRKYLTYNYWGQGTQVTVSS | high polyreactivity
36 | QVQLVESGGGLVQAGGSLRLSCAASGIIFGRYAMGWYRQAPGKERELVAAITSGGSTSYADSVKGRFTISRDNAKNTVYLQMNSLKPEDTAVYYCAVVFVWGWPGYYWGQGTQVTVSS | high polyreactivity
37 | QVQLVESGGGLVQAGGSLRLSCAASGIIFGRYAMGWYRQAPGKERELVAVISRSGGSTYYADSVKGRFTISRDYAKNSVYLQMNSLKPEDTAVYYCAARYTPTYNAGLDYWGQGSQVTVSS | high polyreactivity
38 | QVQLVESGGGLVQAGGSLRLSCAASGIIFGSYTMGWYIQAPGKERELVATISFSGGTTNYADSVKGRFTISRDNAKNTVYLQMNSLKPEDTAVYYCAARPAPATGKLDYWGQGTQVTVSS | low polyreactivity
39 | QVQLVESGGGLVQAGGSLRLSCAASGIIFGTYAMGWYRQAPGKERELVASITNGGNTNYADSVKGRFTISRDNAKNTVYLQMNSLKPEDTAVYYCAKDVPYWRPVVRYDYWGQGTQVTVSS | low polyreactivity
40 | QVQLVESGGGLVQAGGSLRLSCAASGIIFGVNVMGWYRQAPGKERELVATITWRGDSTYYADSVKGRFTISRDNAKNTVYLQMNSLKPEDTAVYYCARGARTGVREDDYWGQGTQVTVSS | low polyreactivity
41 | QVQLVESGGGLVQAGGSLRLSCAASGIIFGWNTMGWYRQAPGKEREFVAAISSSGGSTYADSVKGRFTISRDNAKNTVYLQMNSLKPEDTAVYYCAASKQPGSFEFDYWGQGTQVTVSS | high polyreactivity
42 | QVQLVESGGGLVQAGGSLRLSCAASGIIFGWYAMGWYRPAPGKERELVAGISIGGSTYYADSVKGRFTISRDNANNTVYLQMNSLKPEDTAVYYCAADSYFVLPWSDYWGQGTQVTVSS | high polyreactivity
43 | QVQLVESGGGLVQAGGSLRLSCAASGIIFGYYAMGWYRQAPGKERELVATINWDGGSTYYADSVKGRFTISRDNAKNTVYLQMNSLKPEDTAVYYCAAAKPVQYRIAQAHVGYWGQGTQVTVSS | low polyreactivity
